Test results reported in patent US20040087497A1 (Bristol-Myers Squibb, published 2004).
One block for each binder: values may come before it. Starred links: 1 amine or outer side, 2 acyl side, 3 side chain; linkers in the order of their positions; H or OH if unused. Non-standard residues stand in square brackets, D forms with d. Suc = O=C(CCC(=O)[*:2])[*:1]; Dox = doxorubicin; βAla = NCCC(=O)O

Experiments:
Assay in all cases: cell-based or functional assay
[1] = biological target: T1, human CD10 (human, UniProt P08473 2-750)
T1 sequence (P08473 2-750): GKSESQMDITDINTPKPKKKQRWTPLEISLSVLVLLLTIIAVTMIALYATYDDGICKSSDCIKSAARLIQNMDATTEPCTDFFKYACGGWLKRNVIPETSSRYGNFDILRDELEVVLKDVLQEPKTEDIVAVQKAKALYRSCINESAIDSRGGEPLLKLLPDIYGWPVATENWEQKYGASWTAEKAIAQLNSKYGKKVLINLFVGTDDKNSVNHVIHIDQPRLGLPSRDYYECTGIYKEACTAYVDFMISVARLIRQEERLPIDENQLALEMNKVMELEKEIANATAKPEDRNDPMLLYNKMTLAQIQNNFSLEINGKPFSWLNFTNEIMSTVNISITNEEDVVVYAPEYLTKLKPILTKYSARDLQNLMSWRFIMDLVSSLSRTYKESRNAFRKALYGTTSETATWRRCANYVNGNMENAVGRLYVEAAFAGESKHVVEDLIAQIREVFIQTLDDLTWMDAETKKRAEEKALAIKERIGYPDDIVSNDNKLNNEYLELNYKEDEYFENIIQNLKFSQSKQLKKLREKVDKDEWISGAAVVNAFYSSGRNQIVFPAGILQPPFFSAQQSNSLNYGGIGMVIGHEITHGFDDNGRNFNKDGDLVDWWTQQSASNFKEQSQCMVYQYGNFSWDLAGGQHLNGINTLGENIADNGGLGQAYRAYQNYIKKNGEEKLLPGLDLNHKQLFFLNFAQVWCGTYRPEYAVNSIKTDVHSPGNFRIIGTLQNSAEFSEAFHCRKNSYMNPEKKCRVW

[2] = biological target: T1, human CD10; remark: listed apart in the source
[3] = biological target: T1, human CD10; remark: listed apart in the source
[4] = biological target: T1, human CD10; remark: listed apart in the source
[5] = biological target: Prostate Specific Antigen (PSA) (human, UniProt P07288 25-261)
Sequence of Prostate Specific Antigen (PSA) (P07288 25-261 limits assumed): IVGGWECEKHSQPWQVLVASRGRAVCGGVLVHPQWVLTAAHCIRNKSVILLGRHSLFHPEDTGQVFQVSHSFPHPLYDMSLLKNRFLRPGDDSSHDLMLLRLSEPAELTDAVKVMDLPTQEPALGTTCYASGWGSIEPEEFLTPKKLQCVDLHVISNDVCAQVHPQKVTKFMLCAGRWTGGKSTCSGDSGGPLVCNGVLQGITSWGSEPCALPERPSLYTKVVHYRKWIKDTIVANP

[6] = biological target: T1, human CD10; remark: listed apart in the source
[7] = biological target: T1, human CD10; remark: listed apart in the source
[8] = biological target: T1, human CD10; remark: listed apart in the source

IC50, proliferation of HL60 cells with supernatant of compound-treated CHO Clone 8 (CD10 Pos.) [1]: > 25 µM | IC50, proliferation of HL60 cells with supernatant of compound-treated CHO Clone DB4 (CD10 Pos.) [1]: > 25 µM
Binder: Suc-Leu-Ala-Gly-Dox [Suc-Leu-Ala-Gly-Dox]

IC50, 3H thymidine proliferation, CD10 transfected CHO Clone #3 [2]: 19000 µM | IC50, 3H thymidine proliferation, CD10 transfected CHO Clone #5 [2]: 24000 µM | IC50, 3H thymidine proliferation, CD10 transfected CHO Clone #7 [2]: 13000 µM | IC50, 3H thymidine proliferation, CD10 transfected CHO Clone #8 [2]: 10000 µM | IC50, 3H thymidine proliferation, CD10 transfected CHO clone DB4 [2]: 5400 µM | IC50, 3H thymidine proliferation, LnCap cells (CD10 positive) [2]: 510 µM | IC50, 3H thymidine proliferation, Ramos cells [2]: 840 µM | shift of IC50 on LNCaP cells treated with 100 nM of phosphoramidon [3]: 7 fold
Binder: Suc-[βAla]LAL-Dox [Suc-βAla-Leu-Ala-Leu-Dox]

IC50, 3H-thymidine proliferation, LnCAP cells (CD10+ PSA+) [4]: 170 µM | IC50, 3H-thymidine proliferation, 22RV1 cells (CD10- PSA+) [5]: 14000 µM
Binder: Suc-Ile-Ala-Leu-Dox [Suc-Ile-Ala-Leu-Dox]

IC50 on LNCaP cells (CD10pos) with 0 nM phosphoramidon [6]: 0.24 µM | IC50 on LNCaP cells (CD10pos) with 30 nM phosphoramidon [6]: 1.3 µM | IC50 on LNCaP cells (CD10pos) with 100 nM phosphoramidon [6]: 3.3 µM | IC50 on LNCaP cells (CD10pos) with 300 nM phosphoramidon [6]: 7.7 µM | IC50 on LNCaP cells (CD10pos) with 1000 nM phosphoramidon [6]: 11.3 µM | IC50 on LNCaP cells (CD10pos) with 3000 nM phosphoramidon [6]: 15.4 µM | IC50 on Ramos cells (CD10pos) with 0 nM phosphoramidon [6]: 0.51 µM | IC50 on Ramos cells (CD10pos) with 30 nM phosphoramidon [6]: 2.1 µM | IC50 on Ramos cells (CD10pos) with 100 nM phosphoramidon [6]: 5.3 µM | IC50 on Ramos cells (CD10pos) with 300 nM phosphoramidon [6]: 8.1 µM | IC50 on Ramos cells (CD10pos) with 1000 nM phosphoramidon [6]: 9.7 µM | IC50 on Ramos cells (CD10pos) with 3000 nM phosphoramidon [6]: 10.5 µM | Ratio of IC50 Suc-β-Ala-Ile-Ala-Leu/Dox, CD10 transfected CHO Clone #7 [7]: 17 ratio | Ratio of IC50 Suc-β-Ala-Ile-Ala-Leu/Dox, CD10 transfected CHO Clone #8 [7]: 15 ratio | Ratio of IC50 Suc-β-Ala-Ile-Ala-Leu/Dox, CD10 transfected CHO clone DB4 [7]: 14 ratio | Ratio of IC50 Suc-β-Ala-Ile-Ala-Leu/Dox, LnCap cells [7]: 3 ratio | IC50, 3H thymidine proliferation, CD10 transfected CHO Clone #3 [2]: 19000 µM | IC50, 3H thymidine proliferation, CD10 transfected CHO Clone #5 [2]: 19000 µM | IC50, 3H thymidine proliferation, CD10 transfected CHO Clone #7 [2]: 11000 µM | IC50, 3H thymidine proliferation, CD10 transfected CHO Clone #8 [2]: 8400 µM | IC50, 3H thymidine proliferation, CD10 transfected CHO clone DB4 [2]: 4200 µM | IC50, 3H thymidine proliferation, LnCap cells (CD10 positive) [2]: 390 µM | IC50, 3H thymidine proliferation, Ramos cells [2]: 440 µM | IC50, proliferation of HL60 cells with supernatant of compound-treated CHO Clone 8 (CD10 Pos.) [1]: 2.7 µM | IC50, proliferation of HL60 cells with supernatant of compound-treated CHO Clone DB4 (CD10 Pos.) [1]: 5.4 µM | IC50, 3H-thymidine proliferation, LnCAP cells (CD10+ PSA+) [4]: 150 µM | IC50, 3H-thymidine proliferation, 22RV1 cells (CD10- PSA+) [5]: 10800 µM | IC50 on LNCaP cells (CD10pos) with DL-Thiorphan 0 [8]: 0.51 µM | IC50 on LNCaP cells (CD10pos) with DL-Thiorphan 30 [8]: 2.1 µM | IC50 on LNCaP cells (CD10pos) with DL-Thiorphan 100 [8]: 5.3 µM | IC50 on LNCaP cells (CD10pos) with DL-Thiorphan 300 [8]: 8.1 µM | IC50 on LNCaP cells (CD10pos) with DL-Thiorphan 1000 [8]: 9.7 µM | IC50 on LNCaP cells (CD10pos) with DL-Thiorphan 3000 [8]: 10.5 µM | IC50 on Ramos cells (CD10pos) with DL-Thiorphan 0 [8]: 0.25 µM | IC50 on Ramos cells (CD10pos) with DL-Thiorphan 30 [8]: 0.27 µM | IC50 on Ramos cells (CD10pos) with DL-Thiorphan 100 [8]: 0.31 µM | IC50 on Ramos cells (CD10pos) with DL-Thiorphan 300 [8]: 0.28 µM | IC50 on Ramos cells (CD10pos) with DL-Thiorphan 1000 [8]: 0.44 µM | IC50 on Ramos cells (CD10pos) with DL-Thiorphan 3000 [8]: 1.1 µM | difference between IC50 of Dox and of Suc-βAla-Ile-Ala-Leu-Dox, CD10 transfected CHO cells [3]: ~16 fold
Binder: Suc-[βAla]IAL-Dox [Suc-βAla-Ile-Ala-Leu-Dox]
